Where a chain is given by its changes, count along the chain named.
B1: DOM7h-14-100 (other)
VL: DIQMTQSPSSLSASVGDRVTITCRASQWIGSQLSWYQQKPGKAPKLLIMWRSSLQSGVPSRFSGSGSGTDFTLTISSLQPEDFATYYCAQGLRHPKTYGQGTKVENKW
notes: pDOM5 myc tag not included
B2: DOM7h-14-74 (other)
VL: B1 VL with Q100K
notes: pDOM5 myc tag not included
B3: DOM7h-14-65 (other)
VL: B1 VL with S53A, Y98F, N106I
notes: pDOM5 myc tag not included
B4: DOM7h-14-101 (other)
VL: B1 VL with S53A, S56N, Y98F, N106I
notes: pDOM5 myc tag not included
B5: DOM7h-14-109 (other)
VL: B1 VL with S12F, H94K, Y98F, E105K, N106I
notes: pDOM5 myc tag not included
B6: DOM7h-14-120 (other)
VL: B1 VL with W108R
B7: DOM7h-14-76 (other)
VL: B1 VL with R93K, N106I
notes: pDOM5 myc tag not included
B8: DOM7h-14-123 (other)
VL: B1 VL with Q100K, W108R
B9: DOM7h-14-56 (other)
VL: B1 VL with K45M, R51S, Y98F, N106I
notes: pDOM5 myc tag not included
B10: DOM7h-14-116 (other)
VL: B1 VL with S53A, H94Y, Y98F, N106I
notes: pDOM5 myc tag not included
B11: DOM7h-14-82 (other)
VL: B1 VL with L92M, Y98F, N106I
notes: pDOM5 myc tag not included
B12: DOM7h-14-10 (other)
VL: B1 VL with Y98F, N106I, W108R
notes: Vk dAb (AlbudAb); tag not included here
B13: DOM7h-14-115 (other)
VL: B1 VL with S53A, N106I
notes: pDOM5 myc tag not included
B14: DOM7h-14-122 (other)
VL: B1 VL with Q100K, N106I, W108R
B15: DOM7h-14-119 (other)
VL: B1 VL with N106I, W108R

Each binder was assayed against T1, Cynomolgus monkey Serum Albumin (Cynomolgus monkey, UniProt A2V9Z4 25-608) (assay: SPR (BIAcore), purified dAb; second protein batch, second analyst).
T1 construct: mature; Purified in house; also called CSA; cyno serum albumin
T1 sequence (A2V9Z4 25-608): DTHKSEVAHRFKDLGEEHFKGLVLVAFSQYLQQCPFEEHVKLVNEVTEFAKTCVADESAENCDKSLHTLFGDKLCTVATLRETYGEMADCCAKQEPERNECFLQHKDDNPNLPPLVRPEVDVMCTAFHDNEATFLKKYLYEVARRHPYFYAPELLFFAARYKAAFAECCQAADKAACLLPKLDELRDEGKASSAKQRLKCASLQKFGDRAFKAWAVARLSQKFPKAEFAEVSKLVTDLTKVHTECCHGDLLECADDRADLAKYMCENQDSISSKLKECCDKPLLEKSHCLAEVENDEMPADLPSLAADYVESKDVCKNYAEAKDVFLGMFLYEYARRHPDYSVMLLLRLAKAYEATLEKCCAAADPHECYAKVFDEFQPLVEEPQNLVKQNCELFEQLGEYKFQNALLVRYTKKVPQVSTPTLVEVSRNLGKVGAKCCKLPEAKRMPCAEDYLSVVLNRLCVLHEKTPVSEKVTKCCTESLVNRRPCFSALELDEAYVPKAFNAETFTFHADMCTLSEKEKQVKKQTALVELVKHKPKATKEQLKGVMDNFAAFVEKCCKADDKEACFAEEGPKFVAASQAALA
Procedure: (§1) Unique dAbs were expressed as bacterial supernatants in 0.5 L shake flasks in Onex media at 30° C. for 48 hrs at 250 rpm. dAbs were purified from the culture media by absorption to protein L streamline followed by elution with 100 mM glycine pH2.0.

Question: B1 was tested. Which Kd did it give?
Answer: The Kd was 6.1 nM.

Question: For B2, which Kd is on record?
Answer: Its Kd is 2.7 nM.

Question: How did the Kd turn out when B3 was run?
Answer: Its Kd is 16 nM.

Each binder was assayed against T2, Rat Serum Albumin (rat, UniProt P02770 25-608) in the same assay as above.
T2 construct: mature; Bought purified serum protein; also called RSA; rat SA
T2 sequence (P02770 25-608): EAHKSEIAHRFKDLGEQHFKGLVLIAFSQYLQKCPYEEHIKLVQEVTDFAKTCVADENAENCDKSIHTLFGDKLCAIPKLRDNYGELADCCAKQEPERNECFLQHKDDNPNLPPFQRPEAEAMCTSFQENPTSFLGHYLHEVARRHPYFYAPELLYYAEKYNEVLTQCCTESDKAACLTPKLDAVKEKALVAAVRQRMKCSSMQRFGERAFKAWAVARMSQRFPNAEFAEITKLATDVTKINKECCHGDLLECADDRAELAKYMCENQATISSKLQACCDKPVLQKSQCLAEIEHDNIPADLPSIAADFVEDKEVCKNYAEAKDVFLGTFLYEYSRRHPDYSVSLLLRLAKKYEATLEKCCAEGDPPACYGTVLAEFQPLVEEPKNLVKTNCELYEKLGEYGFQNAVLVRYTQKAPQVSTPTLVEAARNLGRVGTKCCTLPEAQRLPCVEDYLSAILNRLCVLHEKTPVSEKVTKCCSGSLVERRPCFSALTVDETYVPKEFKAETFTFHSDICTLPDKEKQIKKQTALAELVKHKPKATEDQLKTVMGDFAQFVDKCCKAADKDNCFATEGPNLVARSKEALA
Procedure: as §1

Question: B1 was tested. Which Kd did it give?
Answer: The Kd was 29 nM.

Question: With B2 as the binder, how does the Kd read?
Answer: The Kd was 11.6 nM.

Question: How did the Kd turn out when B3 was run?
Answer: Its Kd is 25 nM.

What follows are binders tested against T3, Human Serum Albumin (human, UniProt P02768 25-609) (assay: SPR (BIAcore), purified dAb).
T3 construct: mature; Bought purified serum protein; Immobilised on CM5 chips; also called HSA; human SA
T3 sequence (P02768 25-609): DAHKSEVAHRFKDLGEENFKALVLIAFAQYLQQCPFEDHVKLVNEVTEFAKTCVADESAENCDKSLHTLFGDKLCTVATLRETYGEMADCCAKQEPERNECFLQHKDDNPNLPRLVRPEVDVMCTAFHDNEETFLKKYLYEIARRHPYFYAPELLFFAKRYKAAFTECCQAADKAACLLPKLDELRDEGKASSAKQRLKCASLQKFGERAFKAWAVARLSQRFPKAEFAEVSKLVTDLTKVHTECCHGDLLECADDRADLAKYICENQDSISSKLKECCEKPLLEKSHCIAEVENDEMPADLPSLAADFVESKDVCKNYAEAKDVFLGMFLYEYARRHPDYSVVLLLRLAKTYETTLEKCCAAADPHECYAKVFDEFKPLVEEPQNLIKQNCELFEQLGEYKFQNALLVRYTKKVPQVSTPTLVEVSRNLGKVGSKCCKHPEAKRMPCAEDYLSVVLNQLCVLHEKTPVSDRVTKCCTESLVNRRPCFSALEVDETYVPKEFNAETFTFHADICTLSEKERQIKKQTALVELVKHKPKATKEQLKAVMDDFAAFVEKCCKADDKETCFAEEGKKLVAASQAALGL
Procedure: as §1

Question: With B4 as the binder, how does the Kd read?
Answer: The Kd was 8.4 nM.

Question: Which Kd does the source give for B5 here?
Answer: Its Kd is 108 nM.

Question: B6 was tested. Which Kd did it give?
Answer: Its Kd is 14 nM.

Question: Which Kd does the source give for B1 here?
Answer: Its Kd is 4.5 nM.

Question: With B7 as the binder, how does the Kd read?
Answer: Its Kd is 6.3 nM.

Question: How did the Kd turn out when B8 was run?
Answer: Its Kd is 12 nM.

Question: How did the Kd turn out when B9 was run?
Answer: Its Kd is 11.1 nM.

Question: B10 was tested. Which Kd did it give?
Answer: The Kd was 7 nM.

Question: For B2, which Kd is on record?
Answer: The Kd was 4.8 nM.

Question: For B11, which Kd is on record?
Answer: Its Kd is 15.4 nM.

What follows are binders tested against T4, mouse serum albumin (mouse, UniProt P07724 25-608) (assay: SPR (BIAcore), purified dAb).
T4 construct: mature; Bought purified serum protein; also called MSA; mouse SA
Procedure: as §1

Question: How did the Kd turn out when B12 was run?
Answer: Its Kd is 30.1 nM.

Question: B4 was tested. Which Kd did it give?
Answer: Its Kd is 16.8 nM.

Question: B5 was tested. Which Kd did it give?
Answer: The Kd was 58.1 nM.

Question: For B1, which Kd is on record?
Answer: Its Kd is 8 nM.

Question: With B7 as the binder, how does the Kd read?
Answer: Its Kd is 11.5 nM.

Question: B9 was tested. Which Kd did it give?
Answer: Its Kd is 6.3 nM.

Question: Which Kd does the source give for B10 here?
Answer: The Kd was 19.1 nM.

Question: Which Kd does the source give for B2 here?
Answer: Its Kd is 23.5 nM.

Question: B13 was tested. Which Kd did it give?
Answer: The Kd was 9.8 nM.

Question: How did the Kd turn out when B3 was run?
Answer: The Kd was 15.3 nM.

Question: With B11 as the binder, how does the Kd read?
Answer: The Kd was 32.3 nM.

Each binder was assayed against T1, Cynomolgus monkey Serum Albumin (assay: SPR (BIAcore), purified dAb).
Procedure: as §1

Question: How did the Kd turn out when B4 was run?
Answer: The Kd was 11.6 nM.

Question: For B5, which Kd is on record?
Answer: Its Kd is 17.6 nM.

Question: How did the Kd turn out when B6 was run?
Answer: Its Kd is 3.7 nM.

Question: B1 was tested. Which Kd did it give?
Answer: The Kd was 6.4 nM.

Question: How did the Kd turn out when B7 was run?
Answer: Its Kd is 19.9 nM.

Question: Which Kd does the source give for B8 here?
Answer: Its Kd is 8 nM.

Question: How did the Kd turn out when B9 was run?
Answer: The Kd was 18.7 nM.

Question: How did the Kd turn out when B10 was run?
Answer: The Kd was 22.8 nM.

Question: For B2, which Kd is on record?
Answer: Its Kd is 6.3 nM.

Question: With B11 as the binder, how does the Kd read?
Answer: The Kd was 170 nM.

What follows are binders tested against T2, Rat Serum Albumin (assay: SPR (BIAcore), purified dAb).
Procedure: as §1

Question: With B12 as the binder, how does the Kd read?
Answer: The Kd was 9.4 nM.

Question: How did the Kd turn out when B4 was run?
Answer: Its Kd is 5.8 nM.

Question: How did the Kd turn out when B5 was run?
Answer: Its Kd is 15.4 nM.

Question: Which Kd does the source give for B6 here?
Answer: Its Kd is 2.7 nM.

Question: For B1, which Kd is on record?
Answer: The Kd was 3.7 nM.

Question: With B7 as the binder, how does the Kd read?
Answer: Its Kd is 4.7 nM.

Question: With B8 as the binder, how does the Kd read?
Answer: The Kd was 5.1 nM.

Question: For B14, which Kd is on record?
Answer: Its Kd is 7.8 nM.

Question: For B9, which Kd is on record?
Answer: The Kd was 3.4 nM.

Question: Which Kd does the source give for B10 here?
Answer: Its Kd is 8.5 nM.

Question: For B2, which Kd is on record?
Answer: The Kd was 4.3 nM.

Question: How did the Kd turn out when B15 was run?
Answer: The Kd was 6.2 nM.

Question: How did the Kd turn out when B11 was run?
Answer: The Kd was 11.8 nM.

— US20130230519A1 (published 2013)
